Where a chain is given by its changes, count along the chain named. In names and notes the source's numbering stands.
Experiments:
FcgRIa = biological target: T1, FcgRIa (human, UniProt P12314 16-292); assay: SPR (Biacore), antibody captured on chip, FcgR extracellular domain as analyte
T1 construct: extracellular domain; Expressed in FreeStyle293 cells and purified; used as analyte in Biacore; also called FcγRIa; FcγRI; not shown: His tag attached to the C terminus
Procedure: (§1) Analysis of interaction between obj ective antibody and the FcγR was carried out using Biacore T100 (GE Healthcare), Biacore T200, Biacore A100, and Biacore 4000. HBS-EP+ (GE Healthcare) was used as the running buffer, and the measurement temperature was set to 25° C. Chips produced by immobilizing the antigen peptide by the amine coupling method to a Series S sensor Chip CM5 (GE Healthcare), chips produced by allowing preliminarily biotinylated antigen peptides to interact with and immobilize onto a Series S Sensor Chip SA (certified) (GE Healthcare), chips produced by immobilizing Protein L (ACTIGEN, BioVision) to Series S Sencor Chip CM5 (GE Healthcare), or chips produced by immobilizing Protein A/G (Thermo Scientific) to Series S Sencor Chip CM5 (GE Healthcare) were used. Antibodies of interest were captured onto these chips, and allowed to interact to each FcγR diluted with running buffer. To regenerate and repeatedly use the chip, the antibodies captured onto the chip were washed off by reacting 10 mM glycine-HCl, pH 1.5.

FcgRIIa R = biological target: T2, FcgRIIa R (human, UniProt P12318 34-217); assay: as above
T2 construct: extracellular domain; also called FcγRIIa R; FcγRIIa type R; not shown: His tag attached to the C terminus
T2 sequence (looked up): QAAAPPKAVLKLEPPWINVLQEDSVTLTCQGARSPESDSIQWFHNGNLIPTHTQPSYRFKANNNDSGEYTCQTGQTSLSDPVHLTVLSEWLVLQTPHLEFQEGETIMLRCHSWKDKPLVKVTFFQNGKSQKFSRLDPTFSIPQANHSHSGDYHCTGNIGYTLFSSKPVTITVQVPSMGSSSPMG
Procedure: as §1

FcgRIIa H = biological target: T3, FcgRIIa H (human, UniProt P12318 34-217); assay: as above
T3 construct: extracellular domain; also called FcγRIIa H; FcγRIIa type H; not shown: His tag attached to the C terminus
T3 sequence (looked up): T2 sequence (looked up) with R134H
Procedure: as §1

FcgRIIb = biological target: T4, FcgRIIb (human, UniProt P31994 43-217); assay: as above
T4 construct: extracellular domain; Expressed in FreeStyle293 cells and purified; used as analyte in Biacore; also called FcγRIIb; CD32B; not shown: His tag attached to the C terminus
T4 sequence (looked up): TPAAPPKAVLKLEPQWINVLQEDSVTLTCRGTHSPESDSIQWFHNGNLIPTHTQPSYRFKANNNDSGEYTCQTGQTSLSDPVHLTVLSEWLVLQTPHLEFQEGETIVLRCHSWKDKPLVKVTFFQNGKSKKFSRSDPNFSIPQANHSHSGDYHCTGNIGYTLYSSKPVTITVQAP
Procedure: as §1

FcgRIIIa F = biological target: T5, FcgRIIIa F (human, UniProt P08637 17-208); assay: as above
T5 construct: extracellular domain; also called FcγRIIIa F; not shown: His tag attached to the C terminus
T5 sequence (P08637 17-208): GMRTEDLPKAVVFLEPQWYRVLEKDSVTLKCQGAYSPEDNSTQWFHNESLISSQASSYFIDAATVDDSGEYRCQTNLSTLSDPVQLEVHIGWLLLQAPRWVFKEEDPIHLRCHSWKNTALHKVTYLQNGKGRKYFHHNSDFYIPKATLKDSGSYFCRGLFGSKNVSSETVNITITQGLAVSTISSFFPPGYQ
Procedure: as §1

FcgRIIIa V = biological target: T6, FcgRIIIa V (human, UniProt P08637 17-208); assay: as above
T6 construct: extracellular domain; also called FcγRIIIa V; not shown: His tag attached to the C terminus
T6 sequence (P08637 17-208 F176V limits assumed): as the sequence (P08637 17-208) above, with F160V counted along it
Procedure: as §1

[1] = biological target: T7, FcγRIIIa extracellular domain with C-terminal His tag (human, UniProt P08637 17-208); assay: SPR (Biacore), ratio of KD values for FcγRIIIa
T7 construct: extracellular domain; also called FcgRIIIa; CD16A
T7 sequence (P08637 17-208): as the sequence (P08637 17-208) above
From the text: GpH7-A57 (SEQ ID NO: 40) resulting from the introduction of all of S239D, A330L, and I332E into GpH7-A5; GpH7-B78 (SEQ ID NO: 41) resulting from the introduction of all of S239D, A330L, and I332E into GpH7-B3; GpH7-TA7 (SEQ ID NO: 31) resulting from the introduction of all of L234Y, G236W, and S298A into GpH7-A5; and GpH7-TA45 (SEQ ID NO: 32) resulting from the introduction of all of L234Y, G236W, and S298A into GpH7-B3. […] The prepared antibodies were compared for the FcγRIIIa-binding activity using, as an indicator, KD for FcγRIIIa that was determined according to the method described in Reference Example 2.
(§2) Analysis of interaction between objective antibody and the FcγR was carried out using Biacore T100 (GE Healthcare). HBS-EP+ (GE Healthcare) was used as the running buffer, and the measurement temperature was set to 25° C. Chips produced by immobilizing the antigen peptide by the amine coupling method to a Series S Sencor Chip CM5 (GE Healthcare), or alternatively, chips produced by allowing preliminarily biotinylated antigen peptides to interact with and immobilize onto a Series S Sensor Chip SA (certified) (GE Healthcare) were used. Antibodies of interest were captured onto an antigen peptide-immobilized chip, and allowed to interact to each FcγR diluted with running buffer. To regenerate and repeatedly use the chip, the antibodies captured on the chip were washed off by reacting 10 mM glycine-HCl, pH 1.5.

[2] = biological target: T7, FcγRIIIa extracellular domain with …; assay: SPR (Biacore), antibody captured on antigen peptide chip, FcγR as analyte
Procedure: Specifically, GpH7-TA7 and GpH7-TA45 (SEQ ID NO: 32) resulting from the introduction of L234Y, G236W, and S298A into GpH7-A5 and GpH7-B3, respectively, were prepared according to the method described in Reference Example 1. […] These antibodies were compared for the FcγRIIIa binding according to the method described in Reference Example 2 (Table 10).
as §2

[3] = biological target: T7, FcγRIIIa extracellular domain with …; assay: as above; remark: listed apart in the source
Procedure: GpH7-TA8 (SEQ ID NO: 33) and GpH7-B12 (SEQ ID NO: 12) resulting from the introduction of P329R into GpH7-TA7 and GpH7-B3, respectively, were prepared according to the method described in Reference Example 1.
as §2

[4] = biological target: T7, FcγRIIIa extracellular domain with …; assay: SPR (Biacore), antibody captured, FcγRIIIa as analyte, 1:1 Langmuir kinetic fit
Procedure: The prepared antibodies were compared for the FcγRIIIa-binding activity using, as an indicator, KD for FcγRIIIa that was determined according to the method described in Reference Example 2.
as §2
The FcγR-binding activity of each antibody was assessed primarily using as an indicator the FcγR-binding activity and dissociation constant for FcγR.

T1 sequence (P12314 16-292): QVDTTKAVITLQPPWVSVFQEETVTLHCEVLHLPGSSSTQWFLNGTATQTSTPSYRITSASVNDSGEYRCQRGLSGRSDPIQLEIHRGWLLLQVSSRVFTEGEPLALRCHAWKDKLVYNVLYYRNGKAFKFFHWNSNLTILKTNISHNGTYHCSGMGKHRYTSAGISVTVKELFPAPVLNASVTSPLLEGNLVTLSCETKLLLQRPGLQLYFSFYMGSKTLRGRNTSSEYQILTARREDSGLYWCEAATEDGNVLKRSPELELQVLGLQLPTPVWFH

B1: H240-A5E/H240-B3E/L73-k0 (antibody, human IgG1, kappa)
heavy 1: not shown
heavy 2: not shown
light: DIQMTQSPSSLSASVGDRVTITCRASQDIHKYIAWYQQKPGQAPRLLIQYTSTLQPGVPSRFSGSGSGTDYTFTISSLQPEDIATYYCLQYEQLRTFGGGTKVEIKRTVAAPSVFIFPPSDEQLKSGTASVVCLLNNFYPREAKVQWKVDNALQSGNSQESVTEQDSKDSTYSLSSTLTLSKADYEKHKVYACEVTHQGLSSPVTKSFNRGEC
notes: Anti-EREG IgG1 control: H240-G1dE with D356K/H435R in one H chain and K439E in the other, no FcgR-related alterations
B1 was tested, and the Kd (FcgRIa) was 0.61 nM, the Kd (FcgRIIa R) was 940 nM and the Kd (FcgRIIa H) was 910 nM. For the same binder, the Kd (FcgRIIb) was 4300 nM, the Kd (FcgRIIIa F) was 1600 nM and the Kd (FcgRIIIa V) was 330 nM.

B2: GpH7-A5/GpH7-B3/GpL16-k0 (antibody, human IgG1, kappa)
heavy 1: not shown
heavy 2: not shown
light: DIVMTQSPLSLPVTPGEPASISCQASESLVHSNRNTYLHWYLQKPGQSPQLLIYKVSNRFSGVPDRFSGSGSGTDFTLKISRVEAEDVGVYYCSQNTHVPPTFGQGTKVEIERTVAAPSVFIFPPSDEQLKSGTASVVCLLNNFYPREAKVQWKVDNALQSGNSQESVTEQDSKDSTYSLSSTLTLSKADYEKHKVYACEVTHQGLSSPVTKSFNRGEC
notes: also called HeCon Ab; control heterodimerized antibody
With B2 the “KD ratio 1 (KD of GpH7-G1d/GpL16-k0 divided by KD of the antibody)” value [1] was 0.75 fold, the “KD ratio 2 (KD of GpH7-A5/GpH7-B3/GpL16-k0 divided by KD of the antibody)” value [1] was 1 fold and the “FcγR BINDING ACTIVITY (relative FcγRIIIa binding)” value [2] was 100 relative, GpH7-A5/GpH7-B3/GpL16-k0 = 100. The “FcγRIIIa BINDING ACTIVITY (relative)” value [3] was 100 relative, GpH7-A5/GpH7-B3/GpL16-k0 = 100 and the Kd [4] was 1600 nM.

B3: GpH7-TA7/GpH7-B12/GpL16-k0 (antibody, human IgG1, kappa)
heavy 1: QVQLVQSGAEVKKPGASVTVSCKASGYTFTDYEMHWIRQPPGEGLEWIGAIDPKTGDTAYSESFQDRVTLTADKSTSTAYMELSSLTSEDTAVYYCTRFYSYTYWGQGTLVTVSSASTKGPSVFPLAPSSKSTSGGTAALGCLVKDYFPEPVTVSWNSGALTSGVHTFPAVLQSSGLYSLSSVVTVPSSSLGTQTYICNVNHKPSNTKVDKKVEPKSCDKTHTCPPCPAPEYLWGPSVFLFPPKPKDTLMISRTPEVTCVVVDVSHEDPEVKFNWYVDGVEVHNAKTKPREEQYNATYRVVSVLTVLHQDWLNGKEYKCKVSNKALPAPIEKTISKAKGQPREPQVYTLPPSRKELTKNQVSLTCLVKGFYPSDIAVEWESNGQPENNYKTTPPVLDSDGSFFLYSKLTVDKSRWQQGNVFSCSVMHEALHNRYTQKSLSLSP
heavy 2: not shown
light: B2 light
notes: Heterodimerized anti-glypican-3 IgG1 variant
In the case of B3, the “FcγRIIIa BINDING ACTIVITY (relative)” value [3] is reported as 11 relative, GpH7-A5/GpH7-B3/GpL16-k0 = 100.

B4: GpH7-TA7/GpH7-B3/GpL16-k0 (antibody, human IgG1, kappa)
heavy 1: B3 heavy 1
heavy 2: not shown
light: B2 light
notes: as for B3
With B4 the “KD ratio 1 (KD of GpH7-G1d/GpL16-k0 divided by KD of the antibody)” value [1] was 3.8 fold, the “KD ratio 2 (KD of GpH7-A5/GpH7-B3/GpL16-k0 divided by KD of the antibody)” value [1] was 5.1 fold and the “FcγR BINDING ACTIVITY (relative FcγRIIIa binding)” value [2] was 210 relative, GpH7-A5/GpH7-B3/GpL16-k0 = 100. For the same binder, the “FcγRIIIa BINDING ACTIVITY (relative)” value [3] was 210 relative, GpH7-A5/GpH7-B3/GpL16-k0 = 100 and the Kd [4] was 320 nM.

B5: GpH7-A5/GpH7-TA45/GpL16-k0 (antibody, human IgG1, kappa)
heavy 1: not shown
heavy 2: B3 heavy 1 with K354D, R433H, K437E
light: B2 light
notes: as for B3
B5 was tested, and the “FcγR BINDING ACTIVITY (relative FcγRIIIa binding)” value [2] was 225 relative, GpH7-A5/GpH7-B3/GpL16-k0 = 100.

B6: GpH7-TA8/GpH7-B3/GpL16-k0 (antibody, human IgG1, kappa)
heavy 1: B3 heavy 1 with P327R
heavy 2: not shown
light: B2 light
notes: as for B3
For B6, the “FcγRIIIa BINDING ACTIVITY (relative)” value [3] was 150 relative, GpH7-A5/GpH7-B3/GpL16-k0 = 100.

B7: GpH7-TA7/GpH7-TA45/GpL16-k0 (antibody, human IgG1, kappa)
heavy 1: B3 heavy 1
heavy 2: B3 heavy 1 with K354D, R433H, K437E
light: B2 light
notes: the chains differ only in D356K/H435R against K439E
In the case of B7, the “KD ratio 1 (KD of GpH7-G1d/GpL16-k0 divided by KD of the antibody)” value [1] is reported as 0.37 fold, the “KD ratio 2 (KD of GpH7-A5/GpH7-B3/GpL16-k0 divided by KD of the antibody)” value [1] is reported as 0.49 fold and the “FcγR BINDING ACTIVITY (relative FcγRIIIa binding)” value [2] is reported as 48 relative, GpH7-A5/GpH7-B3/GpL16-k0 = 100. It also gave a Kd [4] of 3300 nM.
